Reference: PMC11300964, “Chaperone BiP controls ER stress sensor Ire1 through interactions with its oligomers” (Life Science Alliance, 2024)
Values joined by “and” are separate entries in the source; they are usually repeats but may differ in a detail not shown here. Identical values can stand only once.

Columns and labels:
[1] = target: the molecule itself; experiment: native MS; 5 μM Ire1-LD sprayed from 100 mM ammonium acetate at pH 6.8; no substrate peptide
[2] = target: the molecule itself; experiment: MST; 0.5 μM FITC-labelled Ire1-LD titrated with unlabelled Ire1-LD; HMK buffer with 1 mM TCEP or 5 mM DTT; apparent dimerization constant (dimer to monomers); no substrate peptide
[3] = target: the molecule itself; experiment: turbidity (OD at 400 nm)
[4] = target: the molecule itself; experiment: co-sedimentation

B1: human Ire1α luminal domain (aa 24–449), wild type (domain or fragment, UniProt O75460 24-449, looked up)
chain: STVTLPETLLFVSTLDGSLHAVSKRTGSIKWTLKEDPVLQVPTHVEEPAFLPDPNDGSLYTLGSKNNEGLTKLPFTIPELVQASPCRSSDGILYMGKKQDIWYVIDLLTGEKQQTLSSAFADSLCPSTSLLYLGRTEYTITMYDTKTRELRWNATYFDYAASLPEDDVDYKMSHFVSNGDGLVVTVDSESGDVLWIQNYASPVVAFYVWQREGLRKVMHINVAVETLRYLTFMSGEVGRITKWKYPFPKETEAKSKLTPTLYVGKYSTSLYASPSMVHEGVAVVPRGSTLPLLEGPQTDGVTIGDKGECVITPSTDVKFDPGLKSKNKLNYLRNYWLLIGHHETPLSASTKMLERFPNNLPKHRENVIPADSEKKSFEEVINLVDQTSENAPTTVSRDVEEKPAHAPARPEAPVDSMLKDMATIIL
modifications: FITC-labelled for the copy held at fixed concentration in MST and for fluorescence polarisation; unlabelled elsewhere
notes: human Ire1α luminal domain (Ire1-LD), aa 24-449 of UniProt O75460; Cloned into the pET His6 TEV LIC vector (Addgene 29653); 15N- or 13C,15N-labelled for NMR; also called Ire1-LD; WT Ire1-LD; source: E. coli BL21 (DE3), purified (HisTrap HP nickel column, dialysis)
- stoichiometry N [1]: 2 and 4
- Kd [2]: 500 ± 170 nM

B2: human Ire1α luminal domain (aa 24–449), 359WLLI362 to GSSG variant (domain or fragment, UniProt O75460 24-449, looked up)
chain: STVTLPETLLFVSTLDGSLHAVSKRTGSIKWTLKEDPVLQVPTHVEEPAFLPDPNDGSLYTLGSKNNEGLTKLPFTIPELVQASPCRSSDGILYMGKKQDIWYVIDLLTGEKQQTLSSAFADSLCPSTSLLYLGRTEYTITMYDTKTRELRWNATYFDYAASLPEDDVDYKMSHFVSNGDGLVVTVDSESGDVLWIQNYASPVVAFYVWQREGLRKVMHINVAVETLRYLTFMSGEVGRITKWKYPFPKETEAKSKLTPTLYVGKYSTSLYASPSMVHEGVAVVPRGSTLPLLEGPQTDGVTIGDKGECVITPSTDVKFDPGLKSKNKLNYLRNYGSSGGHHETPLSASTKMLERFPNNLPKHRENVIPADSEKKSFEEVINLVDQTSENAPTTVSRDVEEKPAHAPARPEAPVDSMLKDMATIIL
notes: human Ire1α luminal domain (Ire1-LD), aa 24-449 of UniProt O75460, with WLLI 359-362 replaced by GSSG at the oligomerisation interface; Methods and one legend print 358WLLI362; also called 358WLLI362 to GSSG; source: E. coli BL21 (DE3), expressed overnight at 20°C, purified (HisTrap HP nickel column)
- binding result [3]: binds

B3: human Ire1α luminal domain (aa 24–449), 315LL316 to DA variant (domain or fragment, UniProt O75460 24-449, looked up)
chain: STVTLPETLLFVSTLDGSLHAVSKRTGSIKWTLKEDPVLQVPTHVEEPAFLPDPNDGSLYTLGSKNNEGLTKLPFTIPELVQASPCRSSDGILYMGKKQDIWYVIDLLTGEKQQTLSSAFADSLCPSTSLLYLGRTEYTITMYDTKTRELRWNATYFDYAASLPEDDVDYKMSHFVSNGDGLVVTVDSESGDVLWIQNYASPVVAFYVWQREGLRKVMHINVAVETLRYLTFMSGEVGRITKWKYPFPKETEAKSKLTPTLYVGKYSTSLYASPSMVHEGVAVVPRGSTLPDAEGPQTDGVTIGDKGECVITPSTDVKFDPGLKSKNKLNYLRNYWLLIGHHETPLSASTKMLERFPNNLPKHRENVIPADSEKKSFEEVINLVDQTSENAPTTVSRDVEEKPAHAPARPEAPVDSMLKDMATIIL
notes: human Ire1α luminal domain (Ire1-LD), aa 24-449 of UniProt O75460, with LL 315-316 replaced by DA; source: E. coli BL21 (DE3), purified (HisTrap HP nickel column)
- binding result [4]: binds
